B1: UGT1A1: UGT1A1 expressed using the electroporation method (HEK293 microsomes) (protein, UniProt P22309 26-533, looked up)
UDP-glucuronosyltransferase …: HAGKILLIPVDGSHWLSMLGAIQQLQQRGHEIVVLAPDASLYIRDGAFYTLKTYPVPFQREDVKESFVSLGHNVFENDSFLQRVIKTYKKIKKDSAMLLSGCSHLLHNKELMASLAESSFDVMLTDPFLPCSPIVAQYLSLPTVFFLHALPCSLEFEATQCPNPFSYVPRPLSSHSDHMTFLQRVKNMLIAFSQNFLCDVVYSPYATLASEFLQREVTVQDLLSSASVWLFRSDFVKDYPRPIMPNMVFVGGINCLHQNPLSQEFEAYINASGEHGIVVFSLGSMVSEIPEKKAMAIADALGKIPQTVLWRYTGTRPSNLANNTILVKWLPQNDLLGHPMTRAFITHAGSHGVYESICNGVPMVMMPLFGDQMDNAKRMETKGAGVTLNVLEMTSEDLENALKAVINDKSYKENIMRLSSLHKDRPVEPLDLAVFWVEFVMRHKGAPHLRPAAHDLTWYQYHSLDVIGFLLAVVLTVAFITFKCCAYGYRKCLGKKGRVKKAHKSKTH

Key:
Aldehyde Oxidase (AO) = biological target: T1, Aldehyde Oxidase (AO) (Homo sapiens, UniProt Q06278); assay: AO assay with probe substrate phthalazine (HPLC); assay type: biochemical; conditions: rAO prepared with transfected HEK293 cells
T1 construct: made in house; host or cells: HEK293 cells, transfected by electroporation; supernatant (soluble fraction) after the 37,000 rpm spin
T1 sequence (Q06278 1-1338): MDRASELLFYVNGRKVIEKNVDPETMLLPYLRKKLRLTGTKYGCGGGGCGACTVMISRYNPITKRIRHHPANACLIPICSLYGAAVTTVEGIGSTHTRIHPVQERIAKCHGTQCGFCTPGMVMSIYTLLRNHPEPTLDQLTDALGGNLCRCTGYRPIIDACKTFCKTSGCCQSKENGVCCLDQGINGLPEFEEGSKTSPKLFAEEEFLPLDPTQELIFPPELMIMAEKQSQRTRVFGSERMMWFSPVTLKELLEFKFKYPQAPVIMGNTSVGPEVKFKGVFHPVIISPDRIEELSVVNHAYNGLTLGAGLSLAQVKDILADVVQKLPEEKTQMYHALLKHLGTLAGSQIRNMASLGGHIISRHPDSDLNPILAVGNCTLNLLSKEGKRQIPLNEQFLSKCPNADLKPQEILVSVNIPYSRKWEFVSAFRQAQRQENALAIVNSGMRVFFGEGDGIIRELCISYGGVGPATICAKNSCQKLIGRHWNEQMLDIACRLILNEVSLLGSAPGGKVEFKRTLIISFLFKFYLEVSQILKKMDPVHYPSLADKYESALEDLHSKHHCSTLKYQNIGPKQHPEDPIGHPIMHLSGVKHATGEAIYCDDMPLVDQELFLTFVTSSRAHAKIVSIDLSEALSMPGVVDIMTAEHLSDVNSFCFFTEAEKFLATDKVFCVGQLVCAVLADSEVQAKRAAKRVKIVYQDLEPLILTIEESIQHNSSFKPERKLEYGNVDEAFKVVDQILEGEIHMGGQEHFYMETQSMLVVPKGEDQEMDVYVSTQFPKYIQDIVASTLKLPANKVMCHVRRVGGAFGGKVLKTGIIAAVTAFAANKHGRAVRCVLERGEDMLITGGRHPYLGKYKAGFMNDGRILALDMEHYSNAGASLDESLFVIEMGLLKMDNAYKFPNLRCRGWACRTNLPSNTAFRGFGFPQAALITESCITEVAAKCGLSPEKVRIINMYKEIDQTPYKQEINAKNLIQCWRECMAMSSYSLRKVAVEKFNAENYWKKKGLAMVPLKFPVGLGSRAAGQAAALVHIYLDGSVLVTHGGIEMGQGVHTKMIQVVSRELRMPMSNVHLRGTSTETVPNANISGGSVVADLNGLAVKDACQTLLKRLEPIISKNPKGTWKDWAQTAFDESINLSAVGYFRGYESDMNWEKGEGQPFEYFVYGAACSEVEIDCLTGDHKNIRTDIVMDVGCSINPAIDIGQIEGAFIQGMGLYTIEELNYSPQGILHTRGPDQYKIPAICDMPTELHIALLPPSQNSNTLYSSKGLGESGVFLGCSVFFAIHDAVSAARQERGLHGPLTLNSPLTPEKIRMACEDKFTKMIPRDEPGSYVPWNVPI
Procedure: (§1) The recombinant AO and UGT1A1 enzymes were prepared as following. Briefly, the cells pellets obtained from the cell recovery step were washed once with phosphate buffered saline (PBS) and centrifuged at 1500 rpm for 10 min at 4° C. The resulting pellet was diluted with appropriate amount of 0.1 M potassium phosphate buffer, and transferred into Dounce Homogenizer followed with 10 stokes. The cell lysate was centrifuged at 2600 rpm for 10 minutes at 4° C. The supernatant was transferred to a new set of centrifuge tube and spun at 37,000 rpm for 15 minutes at 4° C. For recombinant AO, the supernatant (soluble fraction) was aliquoted and stored at −80° C. until use. For UGT1A1 microsomes, the pellet was resuspended in an appropriate amount of 0.1M Tris buffer and homogenized with a Dounce homogenizer with 10 strokes. The UGT1A1 microsomes were aliquoted and stored at −80° C. until use.
AO assays are carried out at 37° C. in 25 mM potassium phosphate buffer (pH7.4) containing 0.1 mM EDTA. 170 μL assay buffer was mixed with 20 μL 1 mM phthalazine and prewarmed to 37° C. in heat block. The reaction is initiated with 10 μL 5 mg/mL AO sample. The cap needs to be opened for oxygen circulation. After incubation, the reaction was stopped by the addition of 100 ul 94% acetonitrile/6% glacial acetic acid. The reaction mix was centrifuged (10,000×g) for 3 minutes and supernatant was analyzed on HPLC.

UGT1A1 = biological target: T2, UGT1A1 (Homo sapiens, UniProt P22309); assay: UGT1A1 assay (beta-estradiol glucuronidation, HPLC); assay type: biochemical; conditions: electroporation method versus BEVs system
T2 construct: made in house; host or cells: HEK293 cells, electroporated with UGT1A1 cDNA; microsomes (membrane pellet)
T2 sequence (P22309 26-533): B1 UDP-glucuronosyltransferase …
Procedure: as §1
A 0.2 ml reaction mixture containing 1.0 mg/ml protein, 2 mM uridine diphosphoglucuronic acid (UDPGA), 10 mM magnesium chloride, 0.025 mg/ml alamethicin and 150 uM beta-estradiol in 50 mM Tris (pH 7.5) was incubated at 37° C. for 30 minutes. After incubation, the reaction was stopped by the addition of 50 ul 94% acetonitrile/6% glacial acetic acid. The reaction mix was centrifuged (10,000×g) for 3 minutes and supernatant was analyzed on HPLC.

| Molecule | AO kinetics with phthalazine (Aldehyde Oxidase (AO)) | UGT1A1 activity relative to UGT1A1 expressed with the BEVs system (UGT1A1) |
| --- | --- | --- |
| Aldehyde Oxidase (AO): recombinant Phase 1 drug metabolizing enzyme Aldehyde Oxidase prepared with transfected HEK293 cells (soluble fraction) | exhibited standard michaelis-mention kinetics curve |  |
| B1 |  | 5 × |
